This note sets out measurements from patent publication US20030077273A1.

The target in assay [1] is human CD21 on Raji cells (CD21+ human Burkitt's lymphoma cell line) (human) (UniProt P20023). Nature of the assay: flow cytometry, control BSA-coated microspheres on Raji cells, 25 microspheres per cell.
The target is the same in assay [2]. Briefly: flow cytometry, control BSA-coated microspheres on Raji cells, 50 microspheres per cell.
Assay [3] shares this target. Briefly: flow cytometry, control BSA-coated microspheres on Raji cells, 100 microspheres per cell.
Assay [4] shares this target. Briefly: cell ELISA on Raji cells, anti-mouse IgG-AP.
For assay [5] the target is unchanged. Nature of the assay: flow cytometry on Raji cells, anti-mouse IgG-FITC.
Assay [6] concerns the target recombinant soluble human CD21 (1-2)-Ig fusion protein (human) (UniProt P20023). Briefly: direct ELISA, sCD21-coated wells, anti-mouse Ig kappa-AP.
For assay [7], the target named is mouse Ig G lambda (isotype of the Ig fusion partner), coated on wells. Nature of the assay: direct ELISA, MoIg-coated control wells, anti-mouse Ig kappa-AP.
Assay [8] deals with human CD21 on Raji cells (CD21+ human Burkitt's lymphoma cell line) (human) (UniProt P20023). Nature of the assay: flow cytometry, competition: C3d beads 25:1 on Raji cells with 15 ng HB5.
Assay [9] shares this target. Nature of the assay: flow cytometry, competition: C3d beads 25:1 on Raji cells with 30 ng HB5.
For assay [10] the target is unchanged. Briefly: flow cytometry, competition: C3d beads 50:1 on Raji cells with 15 ng HB5.
The target is the same in assay [11]. Nature of the assay: flow cytometry, competition: C3d beads 50:1 on Raji cells with 30 ng HB5.
For assay [12] the target is unchanged. Nature of the assay: flow cytometry, competition: C3d beads 100:1 on Raji cells with 15 ng HB5.
Assay [13] shares this target. Nature of the assay: flow cytometry, competition: C3d beads 100:1 on Raji cells with 30 ng HB5.

Chain of human CD21 on Raji cells (CD21+ human Burkitt's lymphoma cell line) (human) (P20023 21-1033): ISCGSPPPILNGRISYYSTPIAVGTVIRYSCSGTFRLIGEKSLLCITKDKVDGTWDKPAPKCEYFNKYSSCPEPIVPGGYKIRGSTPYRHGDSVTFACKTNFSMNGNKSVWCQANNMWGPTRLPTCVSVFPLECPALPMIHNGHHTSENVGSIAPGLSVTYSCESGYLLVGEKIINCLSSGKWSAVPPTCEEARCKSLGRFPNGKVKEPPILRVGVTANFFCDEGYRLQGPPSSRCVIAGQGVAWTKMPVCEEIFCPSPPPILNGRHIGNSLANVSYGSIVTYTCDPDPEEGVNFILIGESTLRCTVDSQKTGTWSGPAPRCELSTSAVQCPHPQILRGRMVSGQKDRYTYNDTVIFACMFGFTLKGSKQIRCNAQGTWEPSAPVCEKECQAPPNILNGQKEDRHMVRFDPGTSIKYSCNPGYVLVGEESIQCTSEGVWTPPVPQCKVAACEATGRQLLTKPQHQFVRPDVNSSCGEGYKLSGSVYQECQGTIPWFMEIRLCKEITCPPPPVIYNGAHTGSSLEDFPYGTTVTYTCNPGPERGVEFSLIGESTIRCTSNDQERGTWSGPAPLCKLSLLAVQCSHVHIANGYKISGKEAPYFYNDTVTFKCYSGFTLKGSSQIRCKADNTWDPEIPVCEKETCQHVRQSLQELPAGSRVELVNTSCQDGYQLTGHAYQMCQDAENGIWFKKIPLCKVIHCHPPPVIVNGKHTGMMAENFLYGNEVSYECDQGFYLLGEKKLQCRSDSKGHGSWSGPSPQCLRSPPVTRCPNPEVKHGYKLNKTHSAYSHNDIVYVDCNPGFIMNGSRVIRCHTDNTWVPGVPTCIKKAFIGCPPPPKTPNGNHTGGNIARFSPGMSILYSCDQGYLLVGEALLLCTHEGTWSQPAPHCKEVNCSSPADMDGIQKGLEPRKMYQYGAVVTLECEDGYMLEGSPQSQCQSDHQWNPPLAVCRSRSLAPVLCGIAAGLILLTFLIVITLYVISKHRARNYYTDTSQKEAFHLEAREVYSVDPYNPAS
Chain of recombinant soluble human CD21 (1-2)-Ig fusion protein (human) (P20023 21-148): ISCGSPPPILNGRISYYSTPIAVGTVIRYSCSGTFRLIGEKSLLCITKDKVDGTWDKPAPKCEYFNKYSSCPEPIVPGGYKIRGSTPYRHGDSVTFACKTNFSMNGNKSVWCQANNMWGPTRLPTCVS

As to “BSA coated on 1 um fluorescent microspheres (from UniProt P02769 25-607)”, the % Cells Bound in [1] was found to be 1.5%; in [2] it was 6.83%; in assay [3], 22.6%.

Mouse IgG (control) (antibody) gave an OD 550 nm in assay [4] of 0.072 OD 550 nm.

Regarding “OKB7 (mouse anti-human CD21, Ortho Diagnostics) (antibody)”, the Mean Fluorescent Index (MFI) in [5] was 123 MFI. Also, the OD in [6] came to 0.44 OD; in assay [7], 0.096 OD.

In assay [4], “anti-human CD21 mAb BE-5 (BioSource International) (antibody)” had an OD 550 nm of 0.546 OD 550 nm. Further, the Mean Fluorescent Index (MFI) in assay [5] worked out at 85 MFI.

In [4], anti-human CD21 mAb Bly-4 (antibody) yielded an OD 550 nm of 1.17 OD 550 nm.

In assay [5], “mouse anti-human CD21 mAb HB5 (BD Pharmingen) (antibody)” registered a Mean Fluorescent Index (MFI) of 117 MFI. Besides, the % Cells Bound (by C3d beads in presence of mAb) came out at 19.4% in assay [8]; 15.4% in [9]; 42.4% in assay [10]; 39.8% in assay [11]; 69.3% in assay [12]; 67.2% in assay [13]. For the same substance, the % Inhibition by mAb in assay [8] was determined as 11.8%; in assay [9] it was 29.7%; in [10], 15.3%; in assay [11], 20.5%; in assay [12] it was 6.5%; in assay [13] it was 9.4%.
